Measured values: patent US20250320281A1

How the values were obtained:
Assay in all cases: cell-based or functional assay
[1] = target: HIV-1 envelope glycoprotein (Env) of isolate 92BR020, clade B (HIV-1)
[2] = target: HIV-1 envelope glycoprotein (Env) of isolate 92RW020, clade A (HIV-1)
[3] = target: HIV-1 envelope glycoprotein (Env) of isolate 92TH021, clade AE (HIV-1)
[4] = target: HIV-1 envelope glycoprotein (Env) of isolate 92UG005, clade D (HIV-1)
[5] = target: HIV-1 envelope glycoprotein (Env) of isolate 92UG024, clade D (HIV-1)
[6] = target: HIV-1 envelope glycoprotein (Env) of isolate 93IN905, clade C (HIV-1)
[7] = target: HIV-1 envelope glycoprotein (Env) of isolate 93UG077, clade A (HIV-1)
[8] = target: HIV-1 envelope glycoprotein (Env) of isolate 94UG103, clade A (HIV-1)
[9] = target: HIV-1 envelope glycoprotein (Env) of isolate APV13, clade B (HIV-1)
[10] = target: HIV-1 envelope glycoprotein (Env) of isolate APV17, clade B (HIV-1)
[11] = target: HIV-1 envelope glycoprotein (Env) of isolate APV6, clade B (HIV-1)
[12] = target: HIV-1 envelope glycoprotein (Env) of isolate CMU02, clade AE (HIV-1)
[13] = target: HIV-1 envelope glycoprotein (Env) of isolate JRCSF, clade B (HIV-1) (UniProt P20871)
[14] = target: HIV-1 envelope glycoprotein (Env) of isolate JRFL, clade B (HIV-1)
[15] = target: HIV-1 envelope glycoprotein (Env) of isolate MGRM-A-010, clade A (HIV-1)
[16] = target: HIV-1 envelope glycoprotein (Env) of isolate MGRM-AG-005, clade AG (HIV-1)
[17] = target: HIV-1 envelope glycoprotein (Env) of isolate MGRM-C-026, clade C (HIV-1)
[18] = target: HIV-1 envelope glycoprotein (Env) of isolate MGRM-C-027, clade C (HIV-1)
[19] = target: HIV-1 envelope glycoprotein (Env) of isolate MGRM-C-028, clade C (HIV-1)
[20] = target: HIV-1 envelope glycoprotein (Env) of isolate MGRM-D-001, clade D (HIV-1)
[21] = target: HIV-1 envelope glycoprotein (Env) of isolate MGRM-D-018, clade D (HIV-1)
[22] = target: HIV-1 envelope glycoprotein (Env) of isolate NL43, clade B (HIV-1)
[23] = target: aMLV envelope protein (negative control pseudovirus)

B1: PGT-135 (5343_B08; 5344_E16) human monoclonal anti-HIV antibody (antibody, V domains shown)
VH: QLQMQESGPGLVKPSETLSLSCTVSGDSIRGGEWGDKDYHWGWVRHSAGKGLEWIGSIHWRGTTHYKESLRRRVSMSIDTSRNWFSLRLASVTAADTAVYFCARHRHHDVFMLVPIAGWFDVWGPGVQVTVSS
VL: EIVMTQSPDTLSVSPGETVTLSCRASQNINKNLAWYQYKPGQSPRLVIFETYSKIAAFPARFVASGSGTEFTLTINNMQSEDVAVYYCQQYEEWPRTFGQGTKVDIK
IC50 (neutralization of pseudovirus) [1]: 0.104 µg/mL | IC80 (neutralization of pseudovirus) [1]: 0.253 µg/mL | IC90 (neutralization of pseudovirus) [1]: 0.43 µg/mL | IC95 (neutralization of pseudovirus) [1]: 0.72 µg/mL | IC50 (neutralization of pseudovirus) [2]: 0.157 µg/mL | IC80 (neutralization of pseudovirus) [2]: 3.46 µg/mL | IC90 (neutralization of pseudovirus) [2]: > 10 µg/mL | IC95 (neutralization of pseudovirus) [2]: > 10 µg/mL | IC50 (neutralization of pseudovirus) [3]: > 10 µg/mL | IC80 (neutralization of pseudovirus) [3]: > 10 µg/mL | IC90 (neutralization of pseudovirus) [3]: > 10 µg/mL | IC95 (neutralization of pseudovirus) [3]: > 10 µg/mL | IC50 (neutralization of pseudovirus) [4]: > 10 µg/mL | IC80 (neutralization of pseudovirus) [4]: > 10 µg/mL | IC90 (neutralization of pseudovirus) [4]: > 10 µg/mL | IC95 (neutralization of pseudovirus) [4]: > 10 µg/mL | IC50 (neutralization of pseudovirus) [5]: 0.0139 µg/mL | IC80 (neutralization of pseudovirus) [5]: 0.054 µg/mL | IC90 (neutralization of pseudovirus) [5]: 0.122 µg/mL | IC95 (neutralization of pseudovirus) [5]: 0.267 µg/mL | IC50 (neutralization of pseudovirus) [6]: 0.0183 µg/mL | IC80 (neutralization of pseudovirus) [6]: 0.0648 µg/mL | IC90 (neutralization of pseudovirus) [6]: 0.136 µg/mL | IC95 (neutralization of pseudovirus) [6]: 0.268 µg/mL | IC50 (neutralization of pseudovirus) [7]: > 10 µg/mL | IC80 (neutralization of pseudovirus) [7]: > 10 µg/mL | IC90 (neutralization of pseudovirus) [7]: > 10 µg/mL | IC95 (neutralization of pseudovirus) [7]: > 10 µg/mL | IC50 (neutralization of pseudovirus) [8]: > 10 µg/mL | IC80 (neutralization of pseudovirus) [8]: > 10 µg/mL | IC90 (neutralization of pseudovirus) [8]: > 10 µg/mL | IC95 (neutralization of pseudovirus) [8]: > 10 µg/mL | IC50 (neutralization of pseudovirus) [9]: 0.545 µg/mL | IC80 (neutralization of pseudovirus) [9]: > 10 µg/mL | IC90 (neutralization of pseudovirus) [9]: > 10 µg/mL | IC95 (neutralization of pseudovirus) [9]: > 10 µg/mL | IC50 (neutralization of pseudovirus) [10]: > 10 µg/mL | IC80 (neutralization of pseudovirus) [10]: > 10 µg/mL | IC90 (neutralization of pseudovirus) [10]: > 10 µg/mL | IC95 (neutralization of pseudovirus) [10]: > 10 µg/mL | IC50 (neutralization of pseudovirus) [11]: > 10 µg/mL | IC80 (neutralization of pseudovirus) [11]: > 10 µg/mL | IC90 (neutralization of pseudovirus) [11]: > 10 µg/mL | IC95 (neutralization of pseudovirus) [11]: > 10 µg/mL | IC50 (neutralization of pseudovirus) [12]: > 10 µg/mL | IC80 (neutralization of pseudovirus) [12]: > 10 µg/mL | IC90 (neutralization of pseudovirus) [12]: > 10 µg/mL | IC95 (neutralization of pseudovirus) [12]: > 10 µg/mL | IC50 (neutralization of pseudovirus) [13]: 0.113 µg/mL | IC80 (neutralization of pseudovirus) [13]: 0.503 µg/mL | IC90 (neutralization of pseudovirus) [13]: 1.47 µg/mL | IC95 (neutralization of pseudovirus) [13]: 8.3 µg/mL | IC50 (neutralization of pseudovirus) [14]: > 10 µg/mL | IC80 (neutralization of pseudovirus) [14]: > 10 µg/mL | IC90 (neutralization of pseudovirus) [14]: > 10 µg/mL | IC95 (neutralization of pseudovirus) [14]: > 10 µg/mL | IC50 (neutralization of pseudovirus) [15]: > 10 µg/mL | IC80 (neutralization of pseudovirus) [15]: > 10 µg/mL | IC90 (neutralization of pseudovirus) [15]: > 10 µg/mL | IC95 (neutralization of pseudovirus) [15]: > 10 µg/mL | IC50 (neutralization of pseudovirus) [16]: > 10 µg/mL | IC80 (neutralization of pseudovirus) [16]: > 10 µg/mL | IC90 (neutralization of pseudovirus) [16]: > 10 µg/mL | IC95 (neutralization of pseudovirus) [16]: > 10 µg/mL | IC50 (neutralization of pseudovirus) [17]: 0.0123 µg/mL | IC80 (neutralization of pseudovirus) [17]: 0.0562 µg/mL | IC90 (neutralization of pseudovirus) [17]: 0.139 µg/mL | IC95 (neutralization of pseudovirus) [17]: 0.331 µg/mL | IC50 (neutralization of pseudovirus) [18]: > 10 µg/mL | IC80 (neutralization of pseudovirus) [18]: > 10 µg/mL | IC90 (neutralization of pseudovirus) [18]: > 10 µg/mL | IC95 (neutralization of pseudovirus) [18]: > 10 µg/mL | IC50 (neutralization of pseudovirus) [19]: 2.16 µg/mL | IC80 (neutralization of pseudovirus) [19]: > 10 µg/mL | IC90 (neutralization of pseudovirus) [19]: > 10 µg/mL | IC95 (neutralization of pseudovirus) [19]: > 10 µg/mL | IC50 (neutralization of pseudovirus) [20]: > 10 µg/mL | IC80 (neutralization of pseudovirus) [20]: > 10 µg/mL | IC90 (neutralization of pseudovirus) [20]: > 10 µg/mL | IC95 (neutralization of pseudovirus) [20]: > 10 µg/mL | IC50 (neutralization of pseudovirus) [21]: 0.0433 µg/mL | IC80 (neutralization of pseudovirus) [21]: 0.2 µg/mL | IC90 (neutralization of pseudovirus) [21]: > 10 µg/mL | IC95 (neutralization of pseudovirus) [21]: > 10 µg/mL | IC50 (neutralization of pseudovirus) [22]: 6.79 µg/mL | IC80 (neutralization of pseudovirus) [22]: > 10 µg/mL | IC90 (neutralization of pseudovirus) [22]: > 10 µg/mL | IC95 (neutralization of pseudovirus) [22]: > 10 µg/mL | IC50 (neutralization of pseudovirus) [23]: > 10 µg/mL | IC80 (neutralization of pseudovirus) [23]: > 10 µg/mL | IC90 (neutralization of pseudovirus) [23]: > 10 µg/mL | IC95 (neutralization of pseudovirus) [23]: > 10 µg/mL
